Assay [1] addresses HLA-B*08:01. In words: IEDB peptide-MHC binding, purified MHC/direct/fluorescence; filed as Kd, often an IC50 or EC50 that approximates it; ≥ and ≤ were set here for values at or beyond the usual limits of such assays.
In assay [2] the target is HLA-B*44:02. The description is as above.
For assay [3], the target named is HLA-B*15:01. Described as above.
In assay [4] the target is HLA-B*07:02. Described as above.
Assay [5] concerns the target HLA-B*40:01. The assay is described as above.
Assay [6] addresses HLA-A*30:01. The assay is described as above.
Assay [7] deals with HLA-A*11:01. The description is as above.
For assay [8], the target named is HLA-A*31:01. The description is as above.
For assay [9], the target named is HLA-B*27:05. The assay is described as above.
Assay [10] concerns the target HLA-A*69:01. Described as above.
Assay [11] has as its target HLA-B*58:01. Described as above.
Assay [12] addresses HLA-A*02:01. The description is as above.
In assay [13] the target is HLA-A*26:01. The description is as above.
For assay [14], the target named is HLA-A*03:01. The assay is described as above.
Assay [15] addresses HLA-A*01:01. The assay is described as above.
The target of assay [16] is HLA-B*35:01. The description is as above.
Assay [17] addresses HLA-A*24:03. Described as above.
Assay [18] deals with HLA-B*46:01. In words: IEDB peptide-MHC binding, purified MHC/competitive/fluorescence; filed as Kd, often an IC50 or EC50 that approximates it; ≥ and ≤ were set here for values at or beyond the usual limits of such assays. As to conditions: source organism: Psychromonas sp. PRT-SC03.
For assay [19], the target named is HLA-B*46:01. Description: IEDB peptide-MHC binding, purified MHC/direct/fluorescence; filed as Kd, often an IC50 or EC50 that approximates it; ≥ and ≤ were set here for values at or beyond the usual limits of such assays.
The target of assay [20] is HLA-C*14:02. Described as above. As to conditions: source organism: Azotobacter vinelandii DJ.
Assay [21] concerns the target HLA-A*29:02. Description: IEDB peptide-MHC binding, purified MHC/competitive/fluorescence; filed as Kd, often an IC50 or EC50 that approximates it; ≥ and ≤ were set here for values at or beyond the usual limits of such assays.
Assay [22] addresses HLA-C*15:02. Description: IEDB peptide-MHC binding, purified MHC/direct/fluorescence; filed as Kd, often an IC50 or EC50 that approximates it; ≥ and ≤ were set here for values at or beyond the usual limits of such assays. As to conditions: source organism: Cryptosporidium parvum Iowa II.
In assay [23] the target is HLA-B*15:01. In words: IEDB peptide-MHC binding, purified MHC/competitive/fluorescence; filed as Kd, often an IC50 or EC50 that approximates it; ≥ and ≤ were set here for values at or beyond the usual limits of such assays. The conditions noted are these: source organism: Vibrio antiquarius.
The target of assay [24] is HLA-A*02:06. The assay is described as above. The conditions noted are these: source organism: Vibrio antiquarius.
Assay [25] concerns the target HLA-A*11:01. Described as above. As to conditions: source organism: Vibrio antiquarius.
For assay [26], the target named is HLA-B*57:01. The assay is described as above. As to conditions: source organism: Vibrio antiquarius.
The target of assay [27] is HLA-B*15:17. The description is as above. The conditions noted are these: source organism: Vibrio antiquarius.
The target in assay [28] is HLA-A*02:01. Described as above. As to conditions: source organism: Vibrio antiquarius.
The target in assay [29] is HLA-A*02:03. The assay is described as above. The conditions noted are these: source organism: Vibrio antiquarius.
Assay [30] deals with HLA-B*08:02. Description: IEDB peptide-MHC binding, purified MHC/direct/fluorescence; filed as Kd, often an IC50 or EC50 that approximates it; ≥ and ≤ were set here for values at or beyond the usual limits of such assays. As to conditions: source organism: Vibrio parahaemolyticus AQ3810.
Assay [31] has as its target HLA-A*29:02. The assay is described as above. As to conditions: source organism: Vibrio parahaemolyticus AQ3810.
For assay [32], the target named is HLA-B*51:01. The assay is described as above. As to conditions: source organism: Vibrio parahaemolyticus AQ3810.
Assay [33] concerns the target HLA-B*18:01. The assay is described as above. The conditions noted are these: source organism: Vibrio parahaemolyticus.
Assay [34] addresses HLA-B*48:01. The assay is described as above. As to conditions: source organism: Vibrio parahaemolyticus.
[35] abbreviates: source organism: Giardia lamblia ATCC 50803.
[36] abbreviates: source organism: Escherichia coli O157:H7.
The mark [37] stands for this setting: source organism: Enterobacteria phage f1.
The mark [38] stands for this setting: source organism: Pseudomonas aeruginosa.
[39] abbreviates: source organism: Ectopseudomonas mendocina.
The mark [40] stands for this setting: source organism: Burkholderia mallei.
Where [41] appears, read: source organism: Burkholderia mallei ATCC 23344.
Where [42] appears, read: source organism: Vibrio parahaemolyticus.
[43] abbreviates: source organism: Vibrio parahaemolyticus AQ3810.

Where only a bound is given, the exact number is not on record here.

As a reminder, the Kd is a measure of binding affinity in units of concentration. As for EFDNYRGTI, the Kd in [1] (setting [35]) was at least 20 µM; in [2] (setting [35]), at least 20 µM; in assay [3] (setting [35]), at least 20 µM; in [4] (setting [35]), at least 20 µM; in [5] (setting [35]), 16.5 µM; in assay [6] (setting [35]), 7.45 µM. In addition, the Kd in assay [7] (setting [35]), in [8] (setting [35]), in assay [9] (setting [35]), in assay [10] (setting [35]), in [11] (setting [35]) and in assay [12] (setting [35]) was at least 20 µM each time. Further, the Kd in [13] (setting [35]), in assay [14] (setting [35]) and in assay [15] (setting [35]) was at least 20 µM each time.

Turning to ADLRFASEF, the Kd in [1] (setting [36]) is 3.84 µM; in [2] (setting [36]) it was at least 20 µM; in assay [3] (setting [36]) it was 0.93 µM; in assay [4] (setting [36]), 11.7 µM; in assay [5] (setting [36]), at least 20 µM; in assay [16] (setting [36]) it was 0.937 µM. Besides, the Kd in assay [7] (setting [36]), in [8] (setting [36]), in assay [9] (setting [36]), in assay [17] (setting [36]), in assay [10] (setting [36]) and in assay [11] (setting [36]) was at least 20 µM in each case. Further, the Kd in assay [12] (setting [36]), in [13] (setting [36]), in [14] (setting [36]) and in assay [15] (setting [36]) was at least 20 µM throughout.

Turning to TFMYVFSTF, the Kd is at least 20 µM in assay [18]; at least 20 µM in assay [1] (setting [37]); 0.695 µM in assay [3] (source organism: Inovirus M13); at least 20 µM in assay [4] (setting [37]); at least 20 µM in assay [5] (setting [37]); 0.0806 µM in [16] (source organism: Inovirus M13). Also, the Kd is at least 20 µM in [7] (setting [37]); at least 20 µM in assay [9] (setting [37]); 0.00639 µM in [17] (source organism: Inovirus M13); at least 20 µM in [10] (setting [37]); 1.1 µM in assay [11] (source organism: Inovirus M13); 8.33 µM in [12] (source organism: Inovirus M13). The Kd in assay [13] (setting [37]), in assay [14] (setting [37]) and in assay [15] (setting [37]) was at least 20 µM each time.

In the case of FSDARLAKL, the Kd is 5.3 µM in [1] (setting [38]); at least 20 µM in assay [3] (setting [39]); 7.92 µM in [4] (setting [38]); 8.72 µM in [5] (setting [38]); 0.797 µM in [16] (setting [38]); at least 20 µM in assay [7] (setting [39]). The dissociation constant (Kd) in assay [8] (setting [39]) was at least 20 µM; in assay [9] (setting [39]) it was at least 20 µM; in [17] (setting [39]), at least 20 µM; in [10] (setting [39]) it was at least 20 µM; in assay [11] (setting [39]), at least 20 µM; in [12] (setting [38]), 18 µM. Moreover, the Kd is at least 20 µM in assay [13] (setting [39]), at least 20 µM in assay [14] (setting [39]) and 7.32 µM in assay [15] (setting [38]).

AMYAPYGPF: the Kd in [3] (setting [40]) was at most 0.001 µM; in assay [4] (setting [41]), 9 µM; in assay [16] (setting [41]), 1.88 µM; in assay [19] (setting [40]), 0.958 µM; in [20], 0.039 µM.

For the sequence CYPRLWGVR, the Kd in assay [1] (setting [35]) was at least 20 µM; in assay [2] (setting [35]), at least 20 µM; in assay [3] (setting [35]), at least 20 µM; in [4] (setting [35]), 9.36 µM; in assay [5] (setting [35]), at least 20 µM; in [6] (setting [35]), 5.83 µM. Moreover, the Kd was at least 10 µM in [7] (setting [35]); at least 20 µM in assay [9] (setting [35]); at least 20 µM in assay [10] (setting [35]); at least 20 µM in [11] (setting [35]); at least 20 µM in assay [12] (setting [35]); at least 20 µM in assay [13] (setting [35]). Further, the Kd in assay [14] (setting [35]) and in assay [15] (setting [35]) was at least 20 µM in each case.

Take SFIPIFYQF: the Kd was 0.0022 µM in [21] (source organism: Cryptosporidium parvum Iowa II) and at least 20 µM in [22].

Take LVAPHMAMM: the Kd in assay [23] was 0.0965 µM; in assay [24], 0.0532 µM; in assay [25], at least 20 µM; in [26] it was 1.13 µM; in assay [27], 0.239 µM; in [28], 3.41 µM. The dissociation constant Kd was 1.14 µM in assay [29]; at least 20 µM in assay [30]; at least 20 µM in assay [5] (setting [42]); at least 20 µM in assay [6] (setting [43]); 0.32 µM in [31]; 11 µM in assay [19] (setting [42]). The Kd in assay [8] (setting [42]) was at least 20 µM; in [9] (setting [42]), at least 20 µM; in [11] (setting [43]), 0.81 µM; in assay [14] (setting [42]) it was at least 20 µM; in assay [32], at least 20 µM; in assay [33], at least 20 µM. In addition, the Kd in [34] and in assay [15] (setting [42]) was at least 20 µM throughout.

Turning to PVPDFPYRY, the Kd in assay [21] (source organism: Entamoeba dispar SAW760) came to 0.0068 µM.

These data come from the Immune Epitope Database (IEDB).
